Columns and labels:
LAD2 cells [1] = assay: MIP-1β generation by LAD2 cells (ELISA); assay type: cell-based, human; settings: apyrase 10 μM, LTE4 500 nM, 6 h
Description: FIG. 2. Requirement for P2Y12 receptors in LTE4-mediated LAD2 cell activation. 2A. Calcium flux of LAD2 cells stimulated with the indicated agonists (500 nM) in the presence or absence of the P2Y12 receptor-selective antagonist 2-MeSAMP (100 μM). […] 2B. […] Cells sensitized overnight with IgE and challenged with anti-IgE were used as the positive control. 2C. […] Results in 2B and 2C are mean±SEM from three independent experiments each. 2D. Effect of shRNA-mediated knockdown of P2Y12 receptor mRNA expression by LAD2 cells.
(§1) FIG. 9. Effect of apyrase treatment on LT-mediated activation of LAD2 cells. 9A. […] Concentrations of MIP-1β were measured by ELISA. 9B. […] Lysates were resolved by SDS-PAGE and probed with the indicated antibodies against phospho- and total ERK. Results in 9A are the mean±½ range from two experiments, while 9B is representative of two experiments.
(§2) Pre-treatment of the LAD2 cells with 2-MesAMP blocked the LTE4-mediated increment in MIP-1β production by >50% (FIG. 2B). […] To exclude potential off-target effects of the inhibitors, samples of LAD2 cells were transfected with lentiviruses encoding a P2Y12 sequence-specific shRNA, a CysLT1R-specific shRNA, or an empty vector control before stimulation. […] LTE4- and LTD4-dependent production of PGD2 were abrogated by the knockdowns of P2Y12 and CysLT1R, respectively (FIG. 2C, bottom). Neither GPCR knockdown altered MIP-1β generation or PGD2 production in response to IgE-anti-IgE (FIG. 2C). LTE4-mediated MIP-1β generation (FIG. 9A) and ERK activation (FIG. 9B) were not altered by treatment of LAD2 cells with apyrase to degrade extracellular ADP.
The concentration of MIP-1β was measured by an ELISA (ENDOGEN®). PGD2 was quantitated by a PGD2-methoxylamine hydrochloride (PGD2-MOX) assay.

LAD2 cells [2] = assay: ERK activation in LAD2 cells with apyrase; assay type: cell-based, human; settings: LTE4 500 nM, 15 minutes
Description: as §1, §2
After stimulation with the respective agonists, LAD2 cells and hMCs (0.5×10^6) were lysed with lysis buffer (BD Bioscience) supplemented with protease inhibitor cocktail (Roche) and sodium vanadate (1 mM). Lysates were subjected to 4-12% SDS-PAGE and transferred to PVDF membranes. […]

human CysLT2R = target: T1, human CysLT2R (Homo sapiens, UniProt Q9NS75); assay: ERK activation in CysLT2R CHO transfectants; assay type: cell-based
T1 construct: expressed in transfected cells
T1 sequence (Q9NS75 1-346): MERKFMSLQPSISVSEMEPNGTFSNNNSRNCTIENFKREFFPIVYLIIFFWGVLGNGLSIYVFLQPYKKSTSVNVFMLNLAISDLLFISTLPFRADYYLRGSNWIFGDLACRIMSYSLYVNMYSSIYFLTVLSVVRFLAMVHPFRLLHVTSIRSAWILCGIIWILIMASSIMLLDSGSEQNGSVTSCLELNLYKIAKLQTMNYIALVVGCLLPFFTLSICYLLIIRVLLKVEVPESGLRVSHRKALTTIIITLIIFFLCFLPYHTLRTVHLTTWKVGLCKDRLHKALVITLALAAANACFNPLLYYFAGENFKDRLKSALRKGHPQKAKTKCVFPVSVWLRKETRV
Description: (§3) FIG. 1. Activation by recombinant human P2Y12 receptors in response to cys-LTs. The human P2Y12 receptor cDNA was cloned in forward and reverse orientation into the expression vector pEF1/His B and transfected into CHO cells using Fugene HD reagent. Stably-expressing clones were selected using G418 (1000 μg/ml), and expression of the construct was confirmed by cytofluorographic detection of the HIS tag. 1A. […] 1B. SDS-PAGE immunoblots showing phosphorylation of ERK2 by CHO cells stably expressing human P2Y12 receptors in reverse (negative control) or forward orientations. […] The blots were stripped and re-probed with an antibody (Ab) recognizing total ERK1 and ERK2. […] 1C. Effect of the selective P2Y12 receptor antagonist 2-MesAMP (MeS) on ligand-induced ERK phosphorylation. P2Y12 receptor expressing CHO cells were stimulated with the same doses of agonists used in 1A, in the absence or presence of 2-MesAMP (100 μM). 1D. Comparison of P2Y12 receptor-mediated responses to cys-LTs with those of recombinant human CysLT1R and CysLT2R expressed in CHO cells, and the effect of the CysLT1R antagonist MK571 (1 μM).
(§4) A P2Y12 receptor cDNA was amplified by reverse transcriptase polymerase chain reaction (RT-PCR) from RNA extracted from primary hMCs and cloned into a mammalian expression vector. Expression was confirmed by detection of a histidine (HIS) tag by flow cytometry. […]

human P2Y12 = human P2Y12 (Homo sapiens, UniProt Q9H244); assay: ERK activation (phosphorylation immunoblot) in P2Y12-expressing CHO cells; assay type: cell-based; parameters: polyhistidine (HIS) tag (C); expressed in transfected cells; settings: 2-MesAMP 100 μM, MK571 1 μM
Description: FIG. 1. Activation by recombinant human P2Y12 receptors in response to cys-LTs. The human P2Y12 receptor cDNA was cloned in forward and reverse orientation into the expression vector pEF1/His B and transfected into CHO cells using Fugene HD reagent. Stably-expressing clones were selected using G418 (1000 μg/ml), and expression of the construct was confirmed by cytofluorographic detection of the HIS tag. 1A. […] Results in second experiment were identical. 1B. SDS-PAGE immunoblots showing phosphorylation of ERK2 by CHO cells stably expressing human P2Y12 receptors in reverse (negative control) or forward orientations. […] The blots were stripped and re-probed with an antibody (Ab) recognizing total ERK1 and ERK2. […] 1C. Effect of the selective P2Y12 receptor antagonist 2-MesAMP (MeS) on ligand-induced ERK phosphorylation. P2Y12 receptor expressing CHO cells were stimulated with the same doses of agonists used in 1A, in the absence or presence of 2-MesAMP (100 μM). 1D. Comparison of P2Y12 receptor-mediated responses to cys-LTs with those of recombinant human CysLT1R and CysLT2R expressed in CHO cells, and the effect of the CysLT1R antagonist MK571 (1 μM). Data in 1B-1D are from individual experiments that were repeated at least 3 times with similar results.
FIG. 8. […] Cells were stably transfected with the human P2Y12 construct and stimulated for 15 minutes with the indicated ligand concentrations. […] Results in a second experiment were similar.
A P2Y12 receptor cDNA was amplified by reverse transcriptase polymerase chain reaction (RT-PCR) from RNA extracted from primary hMCs and cloned into a mammalian expression vector. Expression was confirmed by detection of a histidine (HIS) tag by flow cytometry. Another cohort of CHO cells were stably transfected with a P2Y12 receptor construct in reverse orientation as a negative control. […] The cys-LT-induced ERK activation blocked by pre-treatment of the cells with pertussis toxin (PTX), was attenuated by treatment with the P2Y12 receptor-selective antagonist 2-methylthioadenosine monophosphate (2-MesAMP) (FIG. 1C), and was resistant to MK571, an inhibitor that blocks CysLT1R and some P2Y receptors (Mamedova, L., et al. 2005. Biochem. Pharmacol. 71:115-125). […] These responses were resistant to PTX and 2-MesAMP, and susceptible to MK571 in the case of the CysLT1R transfectants.
A human P2Y12 receptor cDNA was amplified by 30 cycles of PCR from reverse-transcribed total RNA extracted from primary cord blood hMCs. The primer sequences were 5′-[…] (SEQ ID NO: 1) and 3′-[…] (SEQ ID NO: 2). The fragment was cloned into a TA vector (INVITROGEN™). After verifying the nucleotide sequence, the fragment was subcloned into the multiple cloning site of the expression vector pEF1/His B, encoding a C-terminal polyhistidine (HIS) tag. […]

human CysLT1R = target: T2, human CysLT1R (Homo sapiens, UniProt Q9Y271); assay: ERK activation in CysLT1R CHO transfectants; assay type: cell-based
T2 construct: expressed in transfected cells
T2 sequence (Q9Y271 1-337): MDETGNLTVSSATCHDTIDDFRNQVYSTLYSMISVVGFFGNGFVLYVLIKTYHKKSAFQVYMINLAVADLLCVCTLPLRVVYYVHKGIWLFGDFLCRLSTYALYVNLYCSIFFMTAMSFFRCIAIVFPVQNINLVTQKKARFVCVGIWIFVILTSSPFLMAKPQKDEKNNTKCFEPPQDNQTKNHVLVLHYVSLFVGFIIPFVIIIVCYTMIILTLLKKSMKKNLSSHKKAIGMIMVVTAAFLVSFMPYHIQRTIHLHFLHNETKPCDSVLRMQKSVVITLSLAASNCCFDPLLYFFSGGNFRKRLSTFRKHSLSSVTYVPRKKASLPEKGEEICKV
Description: as §3, §4

human P2Y12, sequence (Q9H244 whole entry): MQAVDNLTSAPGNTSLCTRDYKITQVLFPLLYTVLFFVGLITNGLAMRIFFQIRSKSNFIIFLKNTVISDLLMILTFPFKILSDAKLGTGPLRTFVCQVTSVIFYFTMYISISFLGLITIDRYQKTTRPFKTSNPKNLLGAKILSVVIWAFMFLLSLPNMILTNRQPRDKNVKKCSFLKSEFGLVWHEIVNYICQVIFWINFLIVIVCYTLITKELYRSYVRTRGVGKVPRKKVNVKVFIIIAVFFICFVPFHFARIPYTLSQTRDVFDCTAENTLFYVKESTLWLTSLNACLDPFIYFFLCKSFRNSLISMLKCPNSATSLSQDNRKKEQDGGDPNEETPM

Row | Substance | effect on LTE4-mediated MIP-1β generation (LAD2 cells [1]) | effect on LTE4-mediated ERK activation (LAD2 cells [2]) | effect on cys-LT-induced ERK activation (human CysLT2R) | effect on cys-LT-induced ERK activation (human P2Y12) | effect on cys-LT-induced ERK activation (human CysLT1R)
1 | apyrase | not altered | not altered | – | – | –
2 | pertussis toxin | – | – | resistant | blocked | resistant
